Patent US20210115152A1 (ARBELE, published 2021)

Key:
[1] = molecular target: CD3 on Jurkat T cells (UniProt P07766 23-207); assay: cell-based or functional assay
[2] = molecular target: T1, CDH17 on tumor cells (DLD-1, AGS, AsPC1, CDH17-positive pancreatic and colon lines, SW40 with ectopic CDH17) (UniProt Q12864 23-832, limits assumed); assay: cell-based or functional assay
T1 sequence (looked up): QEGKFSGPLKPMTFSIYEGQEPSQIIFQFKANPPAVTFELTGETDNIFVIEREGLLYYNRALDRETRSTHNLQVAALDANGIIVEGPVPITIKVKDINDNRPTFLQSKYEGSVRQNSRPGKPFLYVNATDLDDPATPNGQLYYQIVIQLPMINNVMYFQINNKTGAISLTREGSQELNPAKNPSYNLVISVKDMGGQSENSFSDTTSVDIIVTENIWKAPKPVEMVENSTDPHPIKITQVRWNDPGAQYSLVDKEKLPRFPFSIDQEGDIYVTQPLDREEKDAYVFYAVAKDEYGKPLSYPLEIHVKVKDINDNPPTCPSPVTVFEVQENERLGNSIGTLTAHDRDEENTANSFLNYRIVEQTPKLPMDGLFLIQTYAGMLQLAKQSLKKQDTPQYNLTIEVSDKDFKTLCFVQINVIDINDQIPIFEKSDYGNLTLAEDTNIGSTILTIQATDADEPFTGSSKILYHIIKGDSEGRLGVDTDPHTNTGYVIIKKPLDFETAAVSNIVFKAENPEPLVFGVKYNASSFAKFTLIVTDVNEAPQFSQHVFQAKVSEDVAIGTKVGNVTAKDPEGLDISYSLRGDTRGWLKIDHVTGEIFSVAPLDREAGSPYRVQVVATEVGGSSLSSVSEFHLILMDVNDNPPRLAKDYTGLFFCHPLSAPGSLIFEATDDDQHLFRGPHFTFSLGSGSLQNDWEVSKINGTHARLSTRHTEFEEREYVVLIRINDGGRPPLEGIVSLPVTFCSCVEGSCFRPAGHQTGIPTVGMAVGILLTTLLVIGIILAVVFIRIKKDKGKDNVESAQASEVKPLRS

Chain of CD3 on Jurkat T cells (P07766 23-207): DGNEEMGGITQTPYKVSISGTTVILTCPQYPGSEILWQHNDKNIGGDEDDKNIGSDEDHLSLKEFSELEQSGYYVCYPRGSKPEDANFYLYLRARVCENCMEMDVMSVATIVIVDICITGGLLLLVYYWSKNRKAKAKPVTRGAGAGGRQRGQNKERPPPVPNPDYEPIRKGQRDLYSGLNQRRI

B1: h10G4fL (h10G4U1fL; ARB202), CDH17xCD3 bispecific antibody of the IgG-scFv / fL design, IgG4 (bispecific antibody)
heavy: EVQLVESGGGLVQPGGSLRLSCAASGFTFSSYAMSWVRQTPGKGLEWVAVIDSNGGSTYYPDTVKDRFTISRDNSKNTLYLQMNSLRAEDTAVYYCSSYTNLGAYWGQGTLVTVSSASTKGPSVFPLAPSSKSTSGGTAALGCLVKDYFPEPVTVSWNSGALTSGVHTFPAVLQSSGLYSLSSVVTVPSSSLGTQTYICNVNHKPSNTKVDKRVEPKSCDKTHTCPPCPAPELLGGPSVFLFPPKPKDTLMISRTPEVTCVVVDVSQEDPEVQFNWYVDGVEVHNAKTKPREEQFNSTYRVVSVLTVLHQDWLNGKEYKCKVSNKGLPSSIEKTISKAKGQPREPQVYTLPPSQEEMTKNQVSLTCLVKGFYPSDIAVEWESNGQPENNYKTTPPVLDSDGSFFLYSRLTVDKSRWQEGNVFSCSVMHEALHNHYTQKSLSLSLGKPAGGGGSEVQLVESGGGLVQPGGSLRLSCAASGYSFTGYTMNWVRQAPGKGLEWVALINPYKGVSTYNQKFKDRFTISVDKSKNTAYLQMNSLRAEDTAVYYCARSGYYGDSDWYFDVWGQGTLVTVSSGGGGSGGGGSGGGGSDIQMTQSPSSLSASVGDRVTITCRASQDIRNYLNWYQQKPGKAPKLLIYYTSRLESGVPSRFSGSGSGTDYTLTISSLQPEDFATYYCQQGNTLPWTFGQGTKVEIK
light: DIQMTQSPSSLSASVGDRVTITCRASQDISGYLNWLQQKPGGAIKRLIYTTSTLDSGVPKRFSGSGSGTDFTLTISSLQSEDFATYYCLQYASSPFTFGGGTKVEIKRTVAAPSVFIFPPSDEQLKSGTASVVCLLNNFYPREAKVQWKVDNALQSGNSQESVTEQDSKDSTYSLSSTLTLSKADYEKHKVYACEVTHQGLSSPVTKSFNRGEC
With B1 the “EC50 of IL2 production by PBMC in the absence of AsPC1 tumor cells” value [1] was no less than 18700 pM and the “EC50 of IL2 production by PBMC in the presence of AsPC1 tumor cells (5:1, 16 hours)” value [2] was 30 pM.
